Test results: patent publication US20220193133A1 (CENTURY THERAPEUTICS, published 2022)
Changes are numbered by the printed parent chain.

Columns and labels:
[1] = biological target: T1, D04 protein (humanized D04 VHH as ELISA antigen); test: periplasmic extract ELISA, absorbance 450 nm, single point
T1 construct: Panning used biotinylated D04-Fc; the ELISA legend says only 'D04 protein'

[2] = biological target: T2, humanized D04 VHH CAR (hyLYSO_CW_P01_D04) on Nurkat cells or primary T cells; test: flow cytometry, VHH-Fc on CAR Nurkat cells, 3-fold dilutions 50 to 0.02 nM, anti-Fc APC, %Fc positive cells
T2 construct: also called D04 (p1648); P1650
Description: (§1) […] Fc-fusion protein was detected via anti-Fc APC, and the percentage of cells that were positive for this detection method are shown. […] Controls include (i) no VHH-Fc added and (ii) the anti-VHH cocktail detection reagent (far right). The samples shown in the graphs for each protein appear in the order as specified in the legend.

[3] = biological target: T3, B11-his tagged VHH (humanized B11); test: Octet (BLI), anti-idiotype VHH-Fc vs his-tagged VHH; table title prints D04-his, its footnote prints B11-his
T3 construct: also called B11-his protein; B11 his-tagged protein

[4] = biological target: T4, D04-his tagged VHH (humanized D04); test: Octet (BLI), anti-idiotype VHH-Fc vs his-tagged VHH; table title prints B11-his, paragraph 353 ties these values to D04
T4 construct: also called LysoD04.His; D04 his-tagged protein

[5] = biological target: T5, humanized B11 VHH CAR (hyLYSO_CW_P01_B11) on Nurkat cells; test: flow cytometry, VHH-Fc on CAR Nurkat cells, 3-fold dilutions 50 to 0.02 nM, anti-Fc APC, %Fc positive cells
T5 construct: also called B11 (p1649); P1649
Description: as §1

[6] = biological target: T6, B11 protein (humanized B11 VHH as ELISA antigen); test: periplasmic extract ELISA, absorbance 450 nm, single point
T6 construct: Panning used B11-Fc; the ELISA legend says only 'B11 protein'

[7] = biological target: T7, chicken lysozyme (Hen Egg Lysozyme) (chicken, UniProt P00698 19-147, biotinylated); test: flow cytometry, CAR Jurkat cells + 10 ug/mL biotinylated lysozyme, streptavidin-APC, % positive cells
T7 construct: also called HEL; chicken egg white lysozyme
T7 sequence (P00698 19-147): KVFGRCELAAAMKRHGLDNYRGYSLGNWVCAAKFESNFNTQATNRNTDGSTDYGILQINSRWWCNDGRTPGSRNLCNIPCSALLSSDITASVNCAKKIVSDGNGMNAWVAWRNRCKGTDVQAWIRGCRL

human lysozyme = biological target: T8, human lysozyme (human, UniProt P61626 19-148, biotinylated); test: as above
T8 construct: also called human lysozyme protein
T8 sequence (looked up): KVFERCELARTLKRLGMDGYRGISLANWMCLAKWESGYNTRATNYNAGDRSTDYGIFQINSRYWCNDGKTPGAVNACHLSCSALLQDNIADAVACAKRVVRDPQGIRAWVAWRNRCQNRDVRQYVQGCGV

B1: huD04_CNTY2_F12 anti-idiotype VHH (periplasmic extract) (VHH)
VHH: EVQLLESGGGLVQPGGSLRLSCAASGFTFSSNAMGWYRQAPGKEREFVSSISSGRSTTYADSVKGRFTISRDNSKNTLYLQMNSLRAEDTAVYYCAAHGTKYKWTRARLRSARQKQLETYRYWGQGTQVTVSS
notes: Screened as periplasmic extract; also called VHH of AMD74
[1]
  binding result: binds

B2: AMD74 (huD04_CNTY2_F12 anti-idiotype VHH IgG1-Fc fusion) (Fc fusion)
chain: B1 VHH
notes: not shown: IgG1 Fc
[2]
  binding result: binds

B3: AMD82 (huD04_CNTY1_B12 anti-idiotype VHH IgG1-Fc fusion) (Fc fusion)
chain: EVQLLESGGGLVQPGGSLRLSCAASGRTSSNYVMGWYRQAPGKEREGVSAITSGGSTYYADSVKGRFTISRDNSKNTLYLQMNSLRAEDTAVYYCAANLYSRTGAYDYWGQGTQVTVSS
notes: not shown: IgG1 Fc
[3]
  Response: -0.0225
[4]
  Kd: 125 nM
  Response: 0.172
  koff: 0.0868 s⁻¹
  kon: 697000 M⁻¹ s⁻¹
[5]
  binding result: no binding (tested: 50 nM)
[2]
  EC50 (read off the curve): ~6 nM

B4: huD04_CNTY2_C03 anti-idiotype VHH (periplasmic extract) (VHH)
VHH: EVQLLESGGGLVQPGGSLRLSCAASGLTFSRYAMGWYRQAPGKERELVSAISSRRSTYYADSVKGRFTISRDNSKNTLYLQMNSLRAEDTAVYYCAADYRLTSLERARYASASITYDYWGQGTQVTVSS
notes: Screened as periplasmic extract; also called VHH of AMD78
[6]
  binding result: no binding

B5: AMD67 (Fc fusion)
VHH-Fc: EVQLLESGGGLVQPGGSLRLSCAASGRTFSSGAMGWYRQAPGKERELVSAISNRGSTVYADSVKGRFTISRDNSKNTLYLQMNSLRAEDTAVYYCAADRNPSSAGAGVAAYRLIARFNYWGQGTQVTVSS
notes: also called huD04_CNTY2_F09 anti-idiotype VHH IgG1-Fc fusion
[5]
  binding result: no binding (tested: 50 nM)

B6: AMD75 (Fc fusion)
VHH-Fc: EVQLLESGGGLVQPGGSLRLSCAASGFAFSDYVMGWYRQAPGKEREFVSAIRSTTSTYYADSVKGRFTISRDNSKNTLYLQMNSLRAEDTAVYYCAADVWSGYEYDYWGQGTQVTVSS
notes: also called huB11_CNTY1_E11 anti-idiotype VHH IgG1-Fc fusion
[2]
  binding result: no binding (tested: 50 nM)

B7: AMD76 (Fc fusion)
VHH-Fc: B6 VHH-Fc with F27L, D31S, V33A, A50V, R52S, S53G, T55G, S56E, Y58L
notes: also called huB11_CNTY1_B11 anti-idiotype VHH IgG1-Fc fusion
[2]
  binding result: no binding (tested: 50 nM)

B8: huD04_CNTY2_D02 anti-idiotype VHH (periplasmic extract) (VHH)
VHH: EVQLLESGGGLVQPGGSLRLSCAASGFTFRSYAMGWYRQAPGKEREGVSVISSGGTPSYADSVKGRFTISRDNSKNTLYLQMNSLRAEDTAVYYCDAIMGLVEADYVSTGTYEYTAYAYWGQGTQVTVSS
notes: Screened as periplasmic extract; also called VHH of AMD80
[6]
  binding result: no binding
[1]
  binding result: binds

B9: AMD69 (huD04_CNTY2_E03 anti-idiotype VHH IgG1-Fc fusion) (Fc fusion)
chain: EVQLLESGGGLVQPGGSLRLSCAASGLTYTGYAMGWYRQAPGKERELVSAISSRSSIYYADSVKGRFTISRDNSKNTLYLQMNSLRAEDTAVYYCAAGRPVALGSWRRTATWSAGLGAEYAYWGQGTQVTVSS
notes: not shown: IgG1 Fc
[5]
  binding result: no binding (tested: 50 nM)
[2]
  EC50 (read off the curve): ~4 nM

B10: huD04_CNTY2_E03 anti-idiotype VHH (periplasmic extract) (VHH)
VHH: B9 chain
notes: Screened as periplasmic extract; also called VHH of AMD69
[6]
  binding result: no binding

B11: LYSO_CW_P01_D04 VHH CAR (camelid D04) on Jurkat cells (other, not shown: small tags and cut ends)
chain: QVQLVESGGGLVQAGGSLRLSCAASGRIFSIYDTIGWFRQAPGKEREFVAATITTAGITTYDDSVKGRFTISRDNAKNTVYLQMNSLKPEDTAVYYCYVRVGRGDYWGQGTQVTVSS
notes: camelid (not humanized) VHH; also called D04 (p244)
[7]
  binding result: binds
Human lysozyme
  binding result: no binding (tested: 10 ug/mL)

B12: AMD87 (huD04_CNTY1_D11 anti-idiotype VHH IgG1-Fc fusion) (Fc fusion)
chain: EVQLLESGGGLVQPGGSLRLSCAASGSTFSYYYMGWYRQAPGKERELVSAISSGGSIYYADSVKGRFTISRDNSKNTLYLQMNSLRAEDTAVYYCARRTYYGDEADYWGQGTQVTVSS
notes: not shown: IgG1 Fc
[3]
  Response: -0.0301
[5]
  binding result: no binding (tested: 50 nM)

B13: huD04_CNTY2_H12 anti-idiotype VHH (periplasmic extract) (VHH)
VHH: EVQLLESGGGLVQPGGSLRLSCAASGSIFSSDVMGWYRQAPGKERELVSAISSGGSTRYADSVKGRFTISRDNSKNTLYLQMNSLRAEDTAVYYCAATMGKSKTNRRNYGTWRYGAYAYWGQGTQVTVSS
notes: Screened as periplasmic extract; also called VHH of ABD72 (AMD72)
[1]
  binding result: binds

B14: AMD72 (huD04_CNTY2_H12 anti-idiotype VHH IgG1-Fc fusion) (Fc fusion)
chain: B13 VHH
notes: also called ABD72; not shown: IgG1 Fc
[2]
  binding result: binds

B15: AMD73 (Fc fusion)
VHH-Fc: EVQLLESGGGLVQPGGSLRLSCAASGFTFSSYSIGWYRQAPGKERELVSVISSGGSTYYADSVKGRFTISRDNSKNTLYLQMNSLRAEDTAVYYCAASDWSYSWITYTGTWRLYEYWGQGTQVTVSS
notes: also called huB11_CNTY3+4_A01 anti-idiotype VHH IgG1-Fc fusion
[2]
  binding result: no binding (tested: 50 nM)

B16: AMD71 (huB11_CNTY3+4_A02 anti-idiotype VHH IgG1-Fc fusion) (Fc fusion)
chain: EVQLLESGGGLVQPGGSLRLSCAASGRTYTGSAMGWYRQAPGKERELVSAISTGGETYYADSVKGRFTISRDNSKNTLYLQMNSLRAEDTAVYYCAAGYVGLPYTYRPATSRRGYTYWGQGTQVTVSS
notes: not shown: IgG1 Fc
[3]
  Kd: 515 nM
  Response: 0.0566
  koff: 0.14 s⁻¹
  kon: 273000 M⁻¹ s⁻¹
[2]
  binding result: no binding (tested: 50 nM)

B17: huD04_CNTY2_F04 anti-idiotype VHH (periplasmic extract) (VHH)
VHH: EVQLLESGGGLVQPGGSLRLSCAASGRTFSSYGMGWYRQAPGKERELVSAISNRGSTYYADSVKGRFTISRDNSKNTLYLQMNSLRAEDTAVYYCAASPARVGVSGHSSSRRSYYGYSYDYWGQGTQVTVSS
notes: Screened as periplasmic extract; also called VHH of AMD70
[1]
  binding result: binds

B18: AMD70 (Fc fusion)
VHH-Fc: B17 VHH
notes: also called huD04_CNTY2_F04 anti-idiotype VHH IgG1-Fc fusion
[2]
  binding result: binds

B19: huD04_CNTY2_D04 anti-idiotype VHH (periplasmic extract) (VHH)
VHH: EVQLLESGGGLVQPGGSLRLSCAASGLTFSGVCMGWFRQAPGKEREGVSAIYSSGSTYYADSVKGRFTISRDNSKNTLYLQMNSLRAEDTAVYYCAADRIPDLGEPCIGTTNLARTYNYWGQGTQVTVSS
notes: Screened as periplasmic extract; also called VHH of AMD81
[6]
  binding result: no binding

B20: AMD81 (Fc fusion)
VHH-Fc: B19 VHH
notes: also called huD04_CNTY2_D04 anti-idiotype VHH IgG1-Fc fusion
[5]
  binding result: no binding (tested: 50 nM)

B21: huD04_CNTY2_D12 anti-idiotype VHH (periplasmic extract) (VHH)
VHH: EVQLLESGGGLVQPGGSLRLSCAASGSAFSSNAMGWYRQAPGKERELVSAISSGGSTNYADSVKGRFTISRDNSKNTLYLQMNSLRAEDTAVYYCAARNPLTYTALVSNAPSGDYYLFEYRLWGQGTQVTVSS
notes: Screened as periplasmic extract; also called VHH of AMD85
[6]
  binding result: no binding
[1]
  binding result: binds

B22: LYSO_CW_P01_B11 VHH CAR (camelid B11) on Jurkat cells (other, not shown: small tags and cut ends)
chain: QVQLVESGGGLVQAGGSLRLSCAASGGIFSGGRMGWFRQAPGKEREFVAAVITRGGSTYYADSVKGRFTISRDNAKNTVYLQMNSLKPEDTAVYYCAASEVTYDEGRYIGTKSTYDTWGQGTQVTVSS
notes: camelid (not humanized) VHH; also called B11(p242)
[7]
  binding result: binds
Human lysozyme
  binding result: no binding (tested: 10 ug/mL)

B23: p245 (other)
CAR: B22 chain with R107H
Human lysozyme
  binding result: no binding (tested: 10 ug/mL)

B24: huD04_CNTY2_B06 anti-idiotype VHH (periplasmic extract) (VHH)
VHH: EVQLLESGGGLVQPGGSLRLSCAASGFTFNRYSMGWYRQAPGKERELVSAISSGGSGYYADSVKGRFTISRDNSKNTLYLQMNSLRAEDTAVYYCAIQDYSRIWEYIALDRRRSYYGMDYWGQGTQVTVSS
notes: Screened as periplasmic extract; also called VHH of AMD79
[6]
  binding result: no binding

B25: AMD79 (Fc fusion)
VHH-Fc: B24 VHH
notes: also called huD04_CNTY2_B06 anti-idiotype VHH IgG1-Fc fusion
[5]
  binding result: no binding (tested: 50 nM)
